Measurements taken from publication PMC8514580, “Insight into the interaction between the RNA helicase CGH-1 and EDC-3 and its implications” (Scientific Reports, 2021).

Assays:
Test in all cases: ITC; ligand (peptide or CAR-1 fragment, 0.5 mM) injected into CGH-1_(248-420) or mutant (0.05 mM) in the cell; 20 °C; Buffer B (20 mM Tris-HCl pH 7.5, 150 mM NaCl); one-binding-site model
Details in all cases: both partners purified
[1] = target: T1, CGH-1_(248–420) H269A (C. elegans, UniProt Q95YF3 248-420, H269A)
T1 construct: Mutant of m1 made with the MutanBEST kit; source: E. coli Gold (DE3), purified (Ni-chelating resin, SEC Superdex 75)
T1 sequence (looked up): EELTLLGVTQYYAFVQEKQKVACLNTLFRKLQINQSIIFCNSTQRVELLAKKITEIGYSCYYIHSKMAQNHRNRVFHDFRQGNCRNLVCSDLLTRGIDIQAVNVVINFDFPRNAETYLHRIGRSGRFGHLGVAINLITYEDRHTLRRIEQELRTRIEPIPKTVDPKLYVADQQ

[2] = target: T2, CGH-1_(248–420) K277A (C. elegans, UniProt Q95YF3 248-420, K277A)
T2 construct: Mutant of m1 made with the MutanBEST kit; source: E. coli Gold (DE3), purified (Ni-chelating resin, SEC Superdex 75)
T2 sequence (looked up): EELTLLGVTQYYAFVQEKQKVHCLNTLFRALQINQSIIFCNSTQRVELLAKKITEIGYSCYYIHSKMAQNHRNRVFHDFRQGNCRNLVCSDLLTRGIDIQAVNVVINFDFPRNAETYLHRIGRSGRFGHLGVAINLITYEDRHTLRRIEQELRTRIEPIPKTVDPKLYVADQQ

[3] = target: T3, CGH-1_(248–420) E396A (C. elegans, UniProt Q95YF3 248-420, E396A)
T3 construct: Mutant of m1 made with the MutanBEST kit; source: E. coli Gold (DE3), purified (Ni-chelating resin, SEC Superdex 75)
T3 sequence (looked up): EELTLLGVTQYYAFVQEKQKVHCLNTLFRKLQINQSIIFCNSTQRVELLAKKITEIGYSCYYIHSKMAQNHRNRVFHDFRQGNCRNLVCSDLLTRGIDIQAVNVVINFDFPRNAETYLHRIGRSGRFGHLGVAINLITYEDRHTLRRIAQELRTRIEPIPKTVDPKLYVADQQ

[4] = target: T4, CGH-1_(248–420) 4A mutant (His269, Cys270, Thr273 and Leu274 to Ala) (C. elegans, UniProt Q95YF3 248-420, His269 to Ala | Cys270 to Ala | Thr273 to Ala | Leu274 to Ala)
T4 construct: Mutant of m1 made with the MutanBEST kit; also called four-alanine mutant; source: E. coli Gold (DE3), purified (Ni-chelating resin, SEC Superdex 75)
T4 sequence (looked up): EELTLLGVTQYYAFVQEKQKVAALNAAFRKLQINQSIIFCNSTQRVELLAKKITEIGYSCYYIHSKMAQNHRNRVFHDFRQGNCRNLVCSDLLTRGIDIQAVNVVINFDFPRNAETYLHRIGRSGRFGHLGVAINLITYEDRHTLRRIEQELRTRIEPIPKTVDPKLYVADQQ

[5] = target: T5, CGH-1_(248–420) wild type (CGH-1 RecA2 domain) (C. elegans, UniProt Q95YF3 248-420)
T5 construct: Cloned into NdeI/XhoI of a modified pET-28a in which the thrombin cleavage site was removed; also called CGH-1_248-420^WT; source: E. coli Gold (DE3), purified (Ni-chelating resin, SEC Superdex 75)
T5 sequence (looked up): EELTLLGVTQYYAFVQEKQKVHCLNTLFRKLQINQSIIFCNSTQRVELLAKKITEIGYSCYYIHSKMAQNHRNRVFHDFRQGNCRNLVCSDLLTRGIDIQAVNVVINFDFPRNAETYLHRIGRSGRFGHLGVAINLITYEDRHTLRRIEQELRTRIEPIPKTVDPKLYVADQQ

[6] = target: T6, CGH-1_(248–420) R393A (C. elegans, UniProt Q95YF3 248-420, R393A)
T6 construct: Mutant of m1 made with the MutanBEST kit; source: E. coli Gold (DE3), purified (Ni-chelating resin, SEC Superdex 75)
T6 sequence (looked up): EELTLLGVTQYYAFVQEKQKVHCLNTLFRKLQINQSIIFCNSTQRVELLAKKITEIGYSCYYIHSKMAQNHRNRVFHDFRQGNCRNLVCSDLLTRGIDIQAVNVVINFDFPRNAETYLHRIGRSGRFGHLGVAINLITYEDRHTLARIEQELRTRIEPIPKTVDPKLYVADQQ

[7] = target: T7, CGH-1_(248–420) Y386A (C. elegans, UniProt Q95YF3 248-420, Y386A)
T7 construct: Mutant of m1 made with the MutanBEST kit; source: E. coli Gold (DE3), purified (Ni-chelating resin, SEC Superdex 75)
T7 sequence (looked up): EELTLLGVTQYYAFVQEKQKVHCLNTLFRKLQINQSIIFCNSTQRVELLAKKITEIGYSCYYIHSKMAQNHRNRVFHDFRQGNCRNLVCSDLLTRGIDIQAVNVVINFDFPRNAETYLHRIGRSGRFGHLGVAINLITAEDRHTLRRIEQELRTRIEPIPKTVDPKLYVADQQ

B1: PATR-1 peptide (CePATR-1_(30–67)) (peptide)
peptide: SDEDHNIFDDEFDAANDETFGGGLDNIGENAELENYAT
notes: PATR-1 (Pat1 ortholog), C. elegans, residues 30-67; Printed with free NH2 and COOH ends; also called PATR1_30-67^WT; CePATR-1 peptide; source: synthetic peptide (GL Biochem, Shanghai)
For B1, the Kd [1] was 2670 ± 440 nM, the dH [1] was -15.4 ± 0.67 kcal/mol and the “stoichiometry N” value [1] was 0.94. For the same binder, the Kd [2] was 4430 ± 420 nM, the dH [2] was -17.2 ± 0.57 kcal/mol and the “stoichiometry N” value [2] was 1.07. For the same binder, the Kd [3] was 2960 ± 340 nM, the dH [3] was -16.3 ± 0.47 kcal/mol and the “stoichiometry N” value [3] was 0.93. The Kd [4] was 2060 ± 270 nM, the dH [4] was -15.4 ± 0.44 kcal/mol and the “stoichiometry N” value [4] was 0.79. The Kd [5] was 2130 ± 380 nM, the dH [5] was -15.8 ± 0.62 kcal/mol and the “stoichiometry N” value [5] was 0.88. For the same binder, the Kd [6] was 4220 ± 620 nM, the dH [6] was -16.6 ± 0.69 kcal/mol and the “stoichiometry N” value [6] was 0.8. The Kd [7] was 4190 ± 580 nM, the dH [7] was -14.2 ± 0.56 kcal/mol and the “stoichiometry N” value [7] was 0.85.
